According to patent US20250049953A1, “TREATMENT AND METHOD FOR INHIBITING LATE NA CURRENT” (THE TRUSTEES OF COLUMBIA UNIVERSITY IN THE CITY OF NEW YORK, priority 2022, published 2025):

How the values were obtained:
wild-type NaV1.5 = target: T1, wild-type NaV1.5 (Homo sapiens, UniProt Q14524); assay: Phosphorylation-dependent late Na current, wild-type NaV1.5 co-expressed with PKAcat or CaMKIIT286D in HEK293 cells; format: cell-based
T1 construct: expressed in transfected cells; host or cells: HEK293 (ATCC CRL1573)
T1 sequence (Q14524 whole entry): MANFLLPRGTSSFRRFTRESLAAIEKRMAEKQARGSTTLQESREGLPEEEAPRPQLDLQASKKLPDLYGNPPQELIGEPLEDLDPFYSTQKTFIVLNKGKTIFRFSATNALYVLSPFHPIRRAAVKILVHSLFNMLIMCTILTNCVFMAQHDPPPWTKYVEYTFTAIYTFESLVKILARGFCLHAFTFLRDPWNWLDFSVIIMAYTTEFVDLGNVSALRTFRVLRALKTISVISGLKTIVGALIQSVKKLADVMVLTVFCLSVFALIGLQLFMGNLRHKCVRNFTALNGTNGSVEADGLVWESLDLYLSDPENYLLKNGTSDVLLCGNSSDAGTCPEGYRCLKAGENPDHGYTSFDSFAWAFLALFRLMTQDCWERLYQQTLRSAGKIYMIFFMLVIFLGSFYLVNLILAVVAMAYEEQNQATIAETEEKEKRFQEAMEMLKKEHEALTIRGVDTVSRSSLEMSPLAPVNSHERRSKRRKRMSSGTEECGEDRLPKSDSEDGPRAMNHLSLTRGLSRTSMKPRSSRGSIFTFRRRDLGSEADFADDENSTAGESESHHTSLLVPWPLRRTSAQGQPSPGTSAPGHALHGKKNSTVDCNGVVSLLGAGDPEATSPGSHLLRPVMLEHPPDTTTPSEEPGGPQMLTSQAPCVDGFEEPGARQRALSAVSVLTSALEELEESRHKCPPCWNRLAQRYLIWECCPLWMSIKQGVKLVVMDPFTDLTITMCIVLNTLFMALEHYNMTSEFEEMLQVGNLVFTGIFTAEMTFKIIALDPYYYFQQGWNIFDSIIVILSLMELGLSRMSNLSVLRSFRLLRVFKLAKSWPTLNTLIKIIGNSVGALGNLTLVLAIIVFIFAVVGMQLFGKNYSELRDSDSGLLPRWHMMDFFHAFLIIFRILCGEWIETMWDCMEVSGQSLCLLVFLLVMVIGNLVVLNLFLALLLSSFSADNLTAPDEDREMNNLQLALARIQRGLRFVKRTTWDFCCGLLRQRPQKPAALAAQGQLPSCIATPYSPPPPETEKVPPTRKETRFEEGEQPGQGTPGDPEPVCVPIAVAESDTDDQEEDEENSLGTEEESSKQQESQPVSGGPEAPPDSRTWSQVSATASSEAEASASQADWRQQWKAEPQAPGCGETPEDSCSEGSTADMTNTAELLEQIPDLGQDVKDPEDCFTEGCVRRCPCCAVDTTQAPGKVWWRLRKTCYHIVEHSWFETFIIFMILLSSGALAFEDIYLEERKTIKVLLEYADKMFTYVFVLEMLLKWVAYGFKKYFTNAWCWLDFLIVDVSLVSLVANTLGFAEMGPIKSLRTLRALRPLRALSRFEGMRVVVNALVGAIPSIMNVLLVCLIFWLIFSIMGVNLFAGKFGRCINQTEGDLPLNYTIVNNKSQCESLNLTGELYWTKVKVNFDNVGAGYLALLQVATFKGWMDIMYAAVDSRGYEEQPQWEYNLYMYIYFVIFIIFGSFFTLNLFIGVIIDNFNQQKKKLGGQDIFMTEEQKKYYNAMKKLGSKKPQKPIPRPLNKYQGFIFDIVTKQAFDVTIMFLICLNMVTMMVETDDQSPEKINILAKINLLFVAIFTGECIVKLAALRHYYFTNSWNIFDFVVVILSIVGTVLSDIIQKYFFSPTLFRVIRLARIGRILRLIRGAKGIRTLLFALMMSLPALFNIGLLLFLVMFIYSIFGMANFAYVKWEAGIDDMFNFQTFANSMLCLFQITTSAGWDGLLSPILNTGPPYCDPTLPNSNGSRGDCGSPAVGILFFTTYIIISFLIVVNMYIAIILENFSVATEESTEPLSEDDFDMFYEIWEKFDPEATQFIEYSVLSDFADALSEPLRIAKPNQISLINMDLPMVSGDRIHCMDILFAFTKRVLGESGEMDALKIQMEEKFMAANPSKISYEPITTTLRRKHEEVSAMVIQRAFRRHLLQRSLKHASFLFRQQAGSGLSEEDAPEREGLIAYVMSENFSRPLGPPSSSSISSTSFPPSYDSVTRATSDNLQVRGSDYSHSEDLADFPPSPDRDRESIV
Source text: As such, we sought to determine whether “protective” FHF variants may inhibit phosphorylation-dependent INa,L. To maximally upregulate INa,L, we co-expressed wild-type NaV1.5 with either (1) the catalytic Cα subunit of protein kinase A (PKA) or (2) a constitutively-active Ca^2+/CaM dependent kinase II (CaMKIIT286D) mutant in HEK293 cells. This maneuver likely triggers runaway phosphorylation of NaV1.5 and thereby furnishes a baseline to discern any potential FHF-dependent change. As expected, we observed an ˜5 fold increase in INa,L in the presence of the PKA Cα subunit (FIGS. 3D and 3E), and a 3-fold increase with CaMKIIT286D (FIGS. 3E and 11B). […] Encouraged by these findings, we dissected the functional role of this modulation in native cardiomyocytes (FIGS. 3F and 3G).
The human NaV1.5 channel corresponds to clone M77235.1 (GenBank) and is subcloned into pGW 1 vector with HindIII and SaII. To facilitate construction of channelopathic mutations in the channel carboxy-terminus, we introduced silent mutations into NaV1.5 to introduce an NruI cutting site near the channel carboxy-terminus (5329-gtggccacg-5337 into 5329-gtCgcGacg-5337). Subsequently, we used overlap-extension PCR and ligated the PCR product into NaV1.5/pGW1 using NruI and XbaI restriction sites (mutations: E1784K, S1904L, IQ/AA, and Q1909R). […]

HEK293 cells = format: cell-based; details: up to 10 μM FixR-cpp, 2 hours
Method: The peptide encoding FixR-cpp was chemically synthesized by Genscript (98% purity) to contain the cell permeating viral TAT sequence in the amino-terminus: […] (SEQ ID NO. 2). The amino terminus of the peptide contained a FITC fluorophore to visualize cell uptake. The peptide was resuspended in DMSO. Flow cytometric assays were performed to quantify FixR cellular uptake in both HEK293 cells and freshly dissociated aMVM. HEK293 cells were cultured in 12 well plates and incubated with different concentrations of FixR-cpp for 2 hours and stained for cell death detection using LIVE/DEAD™ Fixable Far Red Dead Cell Stain Kit (ThermoFisher Scientific, L10120). Similarly, non-TG and IQ/AA^tg freshly dissociated aMVM were incubated with various concentrations of FixR-cpp for 2 hours in Tyrode's solution (138 mM NaCl, 4 mM KCl, 1 mM MgCl2, 10 mM HEPES (pH 7.4 using NaOH), 0.2 mM NaHPO4 5 mM D-glucose, 1 mM CaCl2). For cellular uptake measurements, we utilized an LSR II (BD Biosciences) flow cytometer equipped with 405 nm, 488 nm, and 633 nm lasers for excitation and 18 different emission channels. Forward and side scatter signals were detected and used to gate for single and healthy cells. […] Histograms from the Fluorescein 5(6)-isothiocyanate (FITC) and Allophycocyanin (APC) channels for the single-cell population were obtained and analyzed using FlowJo (version X, FlowJo LLC).

Substance	change in phosphorylation-dependent INa,L (wild-type NaV1.5; INa,L upregulated by CaMKIIT286D)	change in phosphorylation-dependent INa,L (wild-type NaV1.5; INa,L upregulated by PKA catalytic subunit (PKAcat))	cell death (HEK293 cells)
FixR: minimal 39-amino-acid FHF1A amino-terminal effector domain, MAAAIASSLIRQKRQARESNSDRVSASKRRSSPSKDGRS (SEQ ID NO: 4), expressed as peptide	reduces INa,L	reduces INa,L	–
FixR-cpp: FixR fused to HIV-1 TAT transduction domain, YGRKKRRQRRRAAAIASSLIRQKRQARESNSERVSASKRRSSPSKG (SEQ ID NO: 2)	–	–	Minimal cell death
